Literature values as cited in patent US20030144198A1, “Coadministration of transport protein with conjugated cobalamin to deliver agents” (priority 2001, published 2003).
Values belong to the molecule of their own block, whether it stands above or below them.

Experiments:
[1] = the D isomer was not hydrolyzed
cubilin = cubilin (Homo sapiens, UniProt O60494); settings: at 20° C., single binding site, dependent on calcium
[2] = in plasma

cubilin, sequence (O60494 36-3623, species assumed): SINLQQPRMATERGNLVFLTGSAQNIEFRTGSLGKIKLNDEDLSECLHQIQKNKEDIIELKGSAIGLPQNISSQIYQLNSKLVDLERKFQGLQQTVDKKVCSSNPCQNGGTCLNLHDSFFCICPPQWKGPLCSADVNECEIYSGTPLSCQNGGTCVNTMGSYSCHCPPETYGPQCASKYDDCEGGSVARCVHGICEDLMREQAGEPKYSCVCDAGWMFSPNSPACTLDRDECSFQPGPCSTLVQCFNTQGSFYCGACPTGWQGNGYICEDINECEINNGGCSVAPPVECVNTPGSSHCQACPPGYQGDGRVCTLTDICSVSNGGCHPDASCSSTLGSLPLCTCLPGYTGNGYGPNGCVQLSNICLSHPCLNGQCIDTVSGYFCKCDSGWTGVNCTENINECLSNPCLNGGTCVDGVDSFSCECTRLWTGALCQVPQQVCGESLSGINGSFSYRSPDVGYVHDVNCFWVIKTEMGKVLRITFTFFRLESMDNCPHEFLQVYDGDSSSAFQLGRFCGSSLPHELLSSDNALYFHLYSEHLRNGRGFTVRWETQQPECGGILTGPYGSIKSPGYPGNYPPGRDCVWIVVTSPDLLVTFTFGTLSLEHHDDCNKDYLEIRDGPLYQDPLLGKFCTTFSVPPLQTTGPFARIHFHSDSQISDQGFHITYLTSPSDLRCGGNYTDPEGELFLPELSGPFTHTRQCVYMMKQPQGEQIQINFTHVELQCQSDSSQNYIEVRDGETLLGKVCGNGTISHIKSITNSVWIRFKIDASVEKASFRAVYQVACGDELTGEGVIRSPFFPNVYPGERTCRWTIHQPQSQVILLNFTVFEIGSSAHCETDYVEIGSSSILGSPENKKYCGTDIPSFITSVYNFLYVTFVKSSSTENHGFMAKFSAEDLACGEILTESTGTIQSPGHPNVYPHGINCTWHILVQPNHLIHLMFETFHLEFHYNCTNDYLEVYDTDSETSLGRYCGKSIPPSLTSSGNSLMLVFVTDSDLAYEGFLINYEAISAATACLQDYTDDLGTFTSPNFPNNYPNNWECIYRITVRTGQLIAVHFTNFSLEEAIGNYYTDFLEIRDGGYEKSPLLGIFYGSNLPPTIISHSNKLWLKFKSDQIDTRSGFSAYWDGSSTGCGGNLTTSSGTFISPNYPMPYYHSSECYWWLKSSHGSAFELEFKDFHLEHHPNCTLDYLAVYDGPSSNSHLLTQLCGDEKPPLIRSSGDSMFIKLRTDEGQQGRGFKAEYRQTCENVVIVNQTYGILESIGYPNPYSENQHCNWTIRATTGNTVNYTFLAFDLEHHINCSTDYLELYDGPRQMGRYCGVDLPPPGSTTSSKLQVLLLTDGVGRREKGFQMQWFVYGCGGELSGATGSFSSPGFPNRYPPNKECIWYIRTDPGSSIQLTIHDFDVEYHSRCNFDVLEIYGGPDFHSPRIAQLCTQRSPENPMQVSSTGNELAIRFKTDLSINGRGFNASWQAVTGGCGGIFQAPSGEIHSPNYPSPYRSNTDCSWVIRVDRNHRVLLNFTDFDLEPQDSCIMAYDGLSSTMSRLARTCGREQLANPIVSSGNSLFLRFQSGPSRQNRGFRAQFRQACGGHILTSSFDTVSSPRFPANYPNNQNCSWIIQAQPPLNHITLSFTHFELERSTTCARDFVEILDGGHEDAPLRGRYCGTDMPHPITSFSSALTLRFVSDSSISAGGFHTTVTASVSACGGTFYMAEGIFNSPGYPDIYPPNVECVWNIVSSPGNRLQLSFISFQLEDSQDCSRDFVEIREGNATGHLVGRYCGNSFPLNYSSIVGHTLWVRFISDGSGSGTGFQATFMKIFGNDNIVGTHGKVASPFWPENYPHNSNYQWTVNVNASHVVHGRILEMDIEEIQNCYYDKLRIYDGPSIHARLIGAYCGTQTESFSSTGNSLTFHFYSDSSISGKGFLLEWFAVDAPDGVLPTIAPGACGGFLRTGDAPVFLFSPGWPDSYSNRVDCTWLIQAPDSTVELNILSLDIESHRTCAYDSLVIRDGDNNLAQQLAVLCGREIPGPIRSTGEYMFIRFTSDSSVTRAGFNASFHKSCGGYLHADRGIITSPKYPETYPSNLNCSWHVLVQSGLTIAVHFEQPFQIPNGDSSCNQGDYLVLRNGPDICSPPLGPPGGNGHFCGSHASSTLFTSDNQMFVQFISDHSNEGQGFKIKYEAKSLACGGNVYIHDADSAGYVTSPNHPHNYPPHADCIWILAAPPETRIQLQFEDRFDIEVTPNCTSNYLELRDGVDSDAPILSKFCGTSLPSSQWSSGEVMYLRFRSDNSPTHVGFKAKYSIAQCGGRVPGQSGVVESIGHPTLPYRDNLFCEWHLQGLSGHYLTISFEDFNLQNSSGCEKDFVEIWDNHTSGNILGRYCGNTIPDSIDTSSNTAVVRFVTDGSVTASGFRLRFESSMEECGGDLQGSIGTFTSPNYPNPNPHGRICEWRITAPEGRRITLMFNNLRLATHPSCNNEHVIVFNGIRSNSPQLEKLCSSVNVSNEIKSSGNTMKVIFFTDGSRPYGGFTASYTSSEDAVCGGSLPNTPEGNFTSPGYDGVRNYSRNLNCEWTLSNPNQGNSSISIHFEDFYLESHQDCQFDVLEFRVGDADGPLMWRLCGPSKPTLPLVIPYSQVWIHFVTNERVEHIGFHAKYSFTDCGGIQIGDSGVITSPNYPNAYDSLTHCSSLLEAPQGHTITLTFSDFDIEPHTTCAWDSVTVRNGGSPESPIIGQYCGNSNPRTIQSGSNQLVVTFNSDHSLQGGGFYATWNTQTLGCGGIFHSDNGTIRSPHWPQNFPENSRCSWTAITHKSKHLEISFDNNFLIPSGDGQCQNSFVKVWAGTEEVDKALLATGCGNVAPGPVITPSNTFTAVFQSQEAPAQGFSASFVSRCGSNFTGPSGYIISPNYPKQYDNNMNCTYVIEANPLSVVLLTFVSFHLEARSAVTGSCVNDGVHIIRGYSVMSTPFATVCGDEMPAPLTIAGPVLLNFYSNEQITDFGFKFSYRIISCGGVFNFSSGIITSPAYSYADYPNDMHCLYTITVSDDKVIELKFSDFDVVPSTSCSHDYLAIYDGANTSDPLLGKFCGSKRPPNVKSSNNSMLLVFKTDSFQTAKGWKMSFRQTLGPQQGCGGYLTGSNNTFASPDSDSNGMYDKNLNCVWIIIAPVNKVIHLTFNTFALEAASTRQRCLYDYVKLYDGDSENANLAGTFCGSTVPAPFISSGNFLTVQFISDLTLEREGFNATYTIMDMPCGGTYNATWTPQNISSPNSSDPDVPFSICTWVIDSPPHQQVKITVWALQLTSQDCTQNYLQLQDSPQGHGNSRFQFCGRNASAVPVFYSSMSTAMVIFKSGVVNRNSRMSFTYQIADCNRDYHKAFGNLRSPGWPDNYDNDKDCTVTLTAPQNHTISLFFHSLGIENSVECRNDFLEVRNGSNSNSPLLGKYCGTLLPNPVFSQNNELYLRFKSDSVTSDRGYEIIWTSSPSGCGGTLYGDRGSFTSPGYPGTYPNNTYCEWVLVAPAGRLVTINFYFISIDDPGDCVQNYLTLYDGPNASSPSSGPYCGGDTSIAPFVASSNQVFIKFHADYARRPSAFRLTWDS
cubilin, sequence (P27352 19-417 partner, species assumed): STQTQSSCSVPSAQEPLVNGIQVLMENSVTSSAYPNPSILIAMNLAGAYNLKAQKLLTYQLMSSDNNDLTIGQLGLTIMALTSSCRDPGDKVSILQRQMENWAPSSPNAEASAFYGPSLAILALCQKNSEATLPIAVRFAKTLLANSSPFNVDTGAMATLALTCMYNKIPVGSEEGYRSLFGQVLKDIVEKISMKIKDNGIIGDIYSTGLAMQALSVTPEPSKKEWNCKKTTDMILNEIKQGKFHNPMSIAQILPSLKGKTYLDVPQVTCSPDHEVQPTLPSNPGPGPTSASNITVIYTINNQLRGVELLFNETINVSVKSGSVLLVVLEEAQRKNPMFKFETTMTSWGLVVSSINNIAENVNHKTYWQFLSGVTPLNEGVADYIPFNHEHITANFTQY

Molecule: COc1cccc2c1C(=O)c1c(O)c3c(c(O)c1C2=O)C[C@@](O)(C(C)=O)C[C@@H]3O[C@H]1C[C@H](NC(=O)[C@@H](N)CC(C)C)C(O)[C@H](C)O1 (stereo partly drawn) [N-(L-leucyl) daunorubicin]
hydrolysis in vivo [1]: hydrolyzed in vivo to regenerate daunorubicin

Kd (cubilin): 1 to 5 nM
Molecule: IF-B12: complex of intrinsic factor with vitamin B12

B1: HC: haptocorrin, group of cobalamin binding proteins that includes TC-I and TC-III (protein, UniProt P20061 24-433, looked up)
Transcobalamin-1: EICEVSEENYIRLKPLLNTMIQSNYNRGTSAVNVVLSLKLVGIQIQTLMQKMIQQIKYNVKSRLSDVSSGELALIILALGVCRNAEENLIYDYHLIDKLENKFQAEIENMEAHNGTPLTNYYQLSLDVLALCLFNGNYSTAEVVNHFTPENKNYYFGSQFSVDTGAMAVLALTCVKKSLINGQIKADEGSLKNISIYTKSLVEKILSEKKENGLIGNTFSTGEAMQALFVSSDYYNENDWNCQQTLNTVLTEISQGAFSNPNAAAQVLPALMGKTFLDINKDSSCVSASGNFNISADEPITVTPPDSQSYISVNYSVRINETYFTNVTVLNGSVFLSVMEKAQKMNDTIFGFTMEERSWGPYITCIQGLCANNNDRTYWELLSGGEPLSQGAGSYVVRNGENLEVRWSKY
t1/2 [2]: 240 h

B2: TC-I: transcobalamin I, plasma cobalamin storage protein (protein, UniProt P20061 24-433, looked up)
Transcobalamin-1: B1 Transcobalamin-1
t1/2 [2]: 240 h
